This note sets out measurements from patent publication US20220204643A1 (published 2022).

What all share (assay): protein array
For assay [1], the target named is T1, Src like adaptor, transcript variant 1 (human, UniProt Q13239 2-276).
T1 construct: on protein array; also called SLA
T1 sequence: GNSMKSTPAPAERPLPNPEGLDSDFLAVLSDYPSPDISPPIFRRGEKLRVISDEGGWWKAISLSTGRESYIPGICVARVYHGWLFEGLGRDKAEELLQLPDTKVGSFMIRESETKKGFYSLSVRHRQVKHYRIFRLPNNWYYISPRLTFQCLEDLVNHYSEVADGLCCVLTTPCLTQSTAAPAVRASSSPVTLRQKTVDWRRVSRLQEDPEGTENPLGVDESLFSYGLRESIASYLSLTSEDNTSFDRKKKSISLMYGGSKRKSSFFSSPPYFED

In assay [2] the target is T2, proteasome 26S subunit, non-ATPase 4, transcript variant 2 (human, UniProt P55036 1-377).
T2 construct: on protein array; also called PSMD4

Assay [3] has as its target T3, enolase 2 (human, UniProt P09104 2-434).
T3 construct: on protein array; also called ENO2

For assay [4], the target named is T4, microfibril associated protein 3, transcript variant 3 (human, UniProt P55082 19-362).
T4 construct: on protein array; also called MFAP3

For assay [5], the target named is T5, rhophilin associated tail protein 1 like, transcript variant 2 (human, UniProt Q96C74 1-230).
T5 construct: on protein array; also called ROPN1L
T5 sequence: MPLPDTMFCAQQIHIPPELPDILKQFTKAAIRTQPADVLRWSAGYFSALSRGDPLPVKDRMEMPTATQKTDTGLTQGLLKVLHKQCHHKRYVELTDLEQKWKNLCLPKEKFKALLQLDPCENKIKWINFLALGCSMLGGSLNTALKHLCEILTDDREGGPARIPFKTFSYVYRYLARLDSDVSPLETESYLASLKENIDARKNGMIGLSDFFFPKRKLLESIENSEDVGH

The target of assay [6] is T6, Dpy-30 histone methyltransferase complex regulatory subunit (human, UniProt Q9C005 1-99).
T6 construct: on protein array

Assay [7] concerns the target T7, keratin associated protein 12-3 (human, UniProt P60328 1-96).
T7 construct: on protein array; also called KRTAP12-3
T7 sequence: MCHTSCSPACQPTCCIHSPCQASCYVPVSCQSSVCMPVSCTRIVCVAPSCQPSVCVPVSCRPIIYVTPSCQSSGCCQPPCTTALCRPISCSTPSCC

In assay [8] the target is T8, PAGE family member 2 (human, UniProt Q7Z2X7 1-111).
T8 construct: on protein array; also called PAGE2
T8 sequence: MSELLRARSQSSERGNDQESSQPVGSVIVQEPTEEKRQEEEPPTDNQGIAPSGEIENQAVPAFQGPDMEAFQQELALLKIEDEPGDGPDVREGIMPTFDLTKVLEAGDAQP

Assay [9] deals with T9, 5-hydroxytryptamine receptor 1E (human, UniProt P28566 1-365).
T9 construct: on protein array; also called HTR1E

The target of assay [10] is T10, Jupiter microtubule associated homolog 2 (human, UniProt Q9H910 1-190).
T10 construct: on protein array; also called HN1L
T10 sequence: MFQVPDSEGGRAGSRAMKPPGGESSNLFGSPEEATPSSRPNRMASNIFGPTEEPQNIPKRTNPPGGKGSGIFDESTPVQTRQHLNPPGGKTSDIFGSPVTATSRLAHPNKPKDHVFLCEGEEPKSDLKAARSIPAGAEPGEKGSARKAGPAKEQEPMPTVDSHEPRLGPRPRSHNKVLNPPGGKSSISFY

Assay [11] addresses T11, BTB domain containing 8 (human, UniProt Q5XKL5 1-374, limits assumed).
T11 construct: on protein array; also called BTBD8

For assay [12], the target named is T12, nudix hydrolase 21 (human, UniProt O43809 2-227).
T12 construct: on protein array; also called NUDT21

The target of assay [13] is T13, zinc finger protein 431, transcript variant 2 (human, UniProt Q8TF32 1-576).
T13 construct: on protein array; also called ZNF431

The target in assay [14] is T14, Zinc finger protein 699 (human, UniProt Q32M78 1-642).
T14 construct: on protein array; also called ZNF699

The target of assay [15] is T15, serpin family B member 6, transcript variant 2 (human, UniProt P35237 1-376).
T15 construct: on protein array; also called SERPINB6
T15 sequence: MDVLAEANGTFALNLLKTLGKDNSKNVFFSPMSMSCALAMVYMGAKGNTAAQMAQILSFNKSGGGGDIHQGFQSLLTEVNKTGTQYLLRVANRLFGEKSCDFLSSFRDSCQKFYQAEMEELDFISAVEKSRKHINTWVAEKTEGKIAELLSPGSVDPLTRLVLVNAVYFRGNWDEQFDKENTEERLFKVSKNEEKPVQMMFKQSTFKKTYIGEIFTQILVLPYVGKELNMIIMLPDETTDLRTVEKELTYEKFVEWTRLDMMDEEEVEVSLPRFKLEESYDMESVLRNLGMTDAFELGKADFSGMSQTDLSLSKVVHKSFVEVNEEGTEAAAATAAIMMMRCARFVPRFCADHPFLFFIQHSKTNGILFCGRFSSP

Assay [16] deals with T16, microtubule associated protein RP/EB family member 2, transcript variant 1 (human, UniProt Q15555 1-327).
T16 construct: on protein array; also called MAPRE2

The target in assay [17] is T17, interleukin 27 receptor subunit alpha (human, UniProt Q6UWB1 33-636).
T17 construct: on protein array; also called IL27RA
T17 sequence: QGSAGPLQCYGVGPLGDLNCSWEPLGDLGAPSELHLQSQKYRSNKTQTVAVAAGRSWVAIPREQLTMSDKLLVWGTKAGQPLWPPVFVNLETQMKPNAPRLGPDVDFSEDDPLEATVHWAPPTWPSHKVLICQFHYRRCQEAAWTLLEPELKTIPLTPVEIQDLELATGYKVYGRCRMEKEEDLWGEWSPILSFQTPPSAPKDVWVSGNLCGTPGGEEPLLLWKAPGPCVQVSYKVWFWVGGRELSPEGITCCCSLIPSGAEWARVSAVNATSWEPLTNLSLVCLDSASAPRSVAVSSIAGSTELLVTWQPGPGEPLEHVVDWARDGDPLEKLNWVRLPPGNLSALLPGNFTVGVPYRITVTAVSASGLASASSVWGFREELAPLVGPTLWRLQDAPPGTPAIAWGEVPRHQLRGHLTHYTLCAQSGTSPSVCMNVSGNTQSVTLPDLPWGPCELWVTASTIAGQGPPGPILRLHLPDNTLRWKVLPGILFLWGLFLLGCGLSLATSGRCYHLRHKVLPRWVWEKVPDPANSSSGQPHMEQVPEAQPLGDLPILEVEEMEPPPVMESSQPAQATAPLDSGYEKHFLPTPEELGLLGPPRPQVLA

T16 sequence (Q15555 whole entry, change not shown): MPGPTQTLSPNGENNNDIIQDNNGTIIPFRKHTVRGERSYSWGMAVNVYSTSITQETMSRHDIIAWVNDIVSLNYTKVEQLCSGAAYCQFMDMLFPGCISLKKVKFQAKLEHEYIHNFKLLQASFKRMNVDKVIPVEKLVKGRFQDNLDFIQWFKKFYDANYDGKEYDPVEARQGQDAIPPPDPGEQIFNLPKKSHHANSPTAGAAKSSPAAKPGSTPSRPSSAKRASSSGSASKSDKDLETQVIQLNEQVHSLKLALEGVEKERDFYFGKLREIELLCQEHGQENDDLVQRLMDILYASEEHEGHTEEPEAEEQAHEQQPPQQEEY
T4 sequence (P55082 19-362 limits assumed, change not shown): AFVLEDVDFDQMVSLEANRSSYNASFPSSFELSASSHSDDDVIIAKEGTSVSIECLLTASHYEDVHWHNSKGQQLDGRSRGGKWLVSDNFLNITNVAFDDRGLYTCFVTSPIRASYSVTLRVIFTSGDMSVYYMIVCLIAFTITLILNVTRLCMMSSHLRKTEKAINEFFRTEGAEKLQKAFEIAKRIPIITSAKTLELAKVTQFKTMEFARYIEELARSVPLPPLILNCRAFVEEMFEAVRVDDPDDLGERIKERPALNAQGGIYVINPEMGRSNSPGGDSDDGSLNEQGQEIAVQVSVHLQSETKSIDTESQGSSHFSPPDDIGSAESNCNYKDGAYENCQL
T13 sequence (Q8TF32 other isoform, or with tags, fused parts or gaps mutant limits assumed): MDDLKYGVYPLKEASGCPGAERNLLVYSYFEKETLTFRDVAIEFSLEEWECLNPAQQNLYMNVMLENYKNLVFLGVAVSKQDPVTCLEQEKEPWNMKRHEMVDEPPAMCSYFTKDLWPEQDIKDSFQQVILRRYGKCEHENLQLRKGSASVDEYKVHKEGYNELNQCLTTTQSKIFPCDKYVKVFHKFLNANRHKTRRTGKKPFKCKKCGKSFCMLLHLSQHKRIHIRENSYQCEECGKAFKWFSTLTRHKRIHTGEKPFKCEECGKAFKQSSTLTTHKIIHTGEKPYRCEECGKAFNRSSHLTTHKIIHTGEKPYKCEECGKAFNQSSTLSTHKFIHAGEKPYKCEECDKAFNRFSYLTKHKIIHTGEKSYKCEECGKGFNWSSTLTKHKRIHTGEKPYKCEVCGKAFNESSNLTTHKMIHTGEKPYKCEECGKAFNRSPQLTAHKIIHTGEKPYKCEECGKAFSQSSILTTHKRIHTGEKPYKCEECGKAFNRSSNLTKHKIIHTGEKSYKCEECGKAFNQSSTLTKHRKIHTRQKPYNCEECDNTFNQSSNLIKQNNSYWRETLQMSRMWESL
T3 sequence (P09104 2-434 limits assumed): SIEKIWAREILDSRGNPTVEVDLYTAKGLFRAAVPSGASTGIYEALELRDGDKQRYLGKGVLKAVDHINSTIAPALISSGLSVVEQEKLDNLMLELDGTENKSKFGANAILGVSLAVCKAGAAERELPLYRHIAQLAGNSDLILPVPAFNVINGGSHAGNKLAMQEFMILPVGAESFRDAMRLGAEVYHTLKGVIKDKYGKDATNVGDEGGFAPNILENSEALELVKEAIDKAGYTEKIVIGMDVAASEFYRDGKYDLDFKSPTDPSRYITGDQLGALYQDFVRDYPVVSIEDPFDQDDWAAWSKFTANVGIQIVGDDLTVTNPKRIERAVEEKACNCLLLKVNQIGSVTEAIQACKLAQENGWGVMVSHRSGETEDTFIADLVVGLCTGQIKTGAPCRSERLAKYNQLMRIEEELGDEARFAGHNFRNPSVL
T14 sequence (Q32M78 whole entry): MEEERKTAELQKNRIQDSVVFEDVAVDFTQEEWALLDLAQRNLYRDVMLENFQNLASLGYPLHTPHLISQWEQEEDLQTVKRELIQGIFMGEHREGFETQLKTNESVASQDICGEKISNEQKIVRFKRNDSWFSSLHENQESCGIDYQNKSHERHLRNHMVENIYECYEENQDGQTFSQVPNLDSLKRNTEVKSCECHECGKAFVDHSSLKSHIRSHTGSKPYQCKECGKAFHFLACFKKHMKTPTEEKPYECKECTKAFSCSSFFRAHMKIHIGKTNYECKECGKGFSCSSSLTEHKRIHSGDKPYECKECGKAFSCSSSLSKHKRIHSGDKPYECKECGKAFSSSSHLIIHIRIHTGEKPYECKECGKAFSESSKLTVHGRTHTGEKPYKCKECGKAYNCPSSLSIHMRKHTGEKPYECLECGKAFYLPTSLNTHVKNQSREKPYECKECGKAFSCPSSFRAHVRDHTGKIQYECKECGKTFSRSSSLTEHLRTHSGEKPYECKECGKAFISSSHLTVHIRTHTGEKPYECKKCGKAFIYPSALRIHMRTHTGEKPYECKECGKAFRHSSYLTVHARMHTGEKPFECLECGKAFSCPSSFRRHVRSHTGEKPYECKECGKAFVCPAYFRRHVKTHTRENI
T12 sequence (O43809 2-227 limits assumed): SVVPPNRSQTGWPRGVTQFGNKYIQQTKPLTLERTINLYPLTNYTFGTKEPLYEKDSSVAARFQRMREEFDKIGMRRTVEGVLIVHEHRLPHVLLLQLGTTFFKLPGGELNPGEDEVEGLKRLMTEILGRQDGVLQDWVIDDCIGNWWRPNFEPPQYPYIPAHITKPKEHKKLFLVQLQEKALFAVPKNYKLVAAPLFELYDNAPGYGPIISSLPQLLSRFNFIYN
T11 sequence (Q5XKL5 other isoform, or with tags, fused parts or gaps limits assumed): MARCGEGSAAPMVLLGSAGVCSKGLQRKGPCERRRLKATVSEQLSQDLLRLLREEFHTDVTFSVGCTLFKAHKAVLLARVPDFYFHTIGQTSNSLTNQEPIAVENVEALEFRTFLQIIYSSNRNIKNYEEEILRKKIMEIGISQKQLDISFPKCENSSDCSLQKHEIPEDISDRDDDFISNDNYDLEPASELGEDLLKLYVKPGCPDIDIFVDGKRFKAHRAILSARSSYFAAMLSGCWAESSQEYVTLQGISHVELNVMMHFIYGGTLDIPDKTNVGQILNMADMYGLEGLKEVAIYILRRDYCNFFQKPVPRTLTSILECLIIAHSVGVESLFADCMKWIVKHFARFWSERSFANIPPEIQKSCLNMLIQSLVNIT
T2 sequence (P55036 whole entry, change not shown): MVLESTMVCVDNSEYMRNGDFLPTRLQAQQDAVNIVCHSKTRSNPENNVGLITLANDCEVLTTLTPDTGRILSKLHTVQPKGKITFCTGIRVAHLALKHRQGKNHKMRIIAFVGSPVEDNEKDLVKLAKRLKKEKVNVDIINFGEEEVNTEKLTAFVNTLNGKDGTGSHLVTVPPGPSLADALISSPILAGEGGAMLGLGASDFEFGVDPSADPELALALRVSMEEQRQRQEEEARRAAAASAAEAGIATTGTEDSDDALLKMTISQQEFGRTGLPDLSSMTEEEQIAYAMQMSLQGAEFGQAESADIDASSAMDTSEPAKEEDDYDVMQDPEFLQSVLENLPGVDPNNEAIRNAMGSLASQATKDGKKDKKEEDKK
T9 sequence (P28566 whole entry): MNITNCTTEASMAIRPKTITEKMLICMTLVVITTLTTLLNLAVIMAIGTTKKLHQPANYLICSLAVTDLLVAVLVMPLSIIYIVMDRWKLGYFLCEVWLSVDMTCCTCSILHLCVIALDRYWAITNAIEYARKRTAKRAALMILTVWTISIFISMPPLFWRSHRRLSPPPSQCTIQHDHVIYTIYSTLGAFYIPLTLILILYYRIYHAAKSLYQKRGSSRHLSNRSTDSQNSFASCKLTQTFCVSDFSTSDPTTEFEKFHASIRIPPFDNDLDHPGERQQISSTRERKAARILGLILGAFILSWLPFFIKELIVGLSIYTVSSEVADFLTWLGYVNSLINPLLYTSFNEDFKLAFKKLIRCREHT
T6 sequence (Q9C005 whole entry, one chain of several): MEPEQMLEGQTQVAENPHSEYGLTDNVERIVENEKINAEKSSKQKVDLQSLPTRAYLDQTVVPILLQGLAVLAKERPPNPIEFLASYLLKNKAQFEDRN

B1: TMEL1032 (antibody, V domains shown)
VH: QVQLVQSGAEVRKPGASVKVSCKASGYTFTTYYIHWVRQAPGQGLEWMGLINPNGGTTNYAQKFQGRLSMTTDTSTNTVYMELSSLRSEDTAVYYCARKLMSGIVSRGWFDPWGQGTLVTVSS
VL: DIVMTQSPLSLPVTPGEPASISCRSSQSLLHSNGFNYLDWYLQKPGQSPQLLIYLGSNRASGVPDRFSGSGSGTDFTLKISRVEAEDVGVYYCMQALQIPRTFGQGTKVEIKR
notes: VH/VL tied via antigen in summary, not by name in this stretch
As for B1, the binding result in assay [1] and in assay [2] was “binds” each time.

B2: TMEL1037 (antibody, V domains shown)
VH: PLQLQESGPGLVKPSETLSLTCTVSGGSISSSSYYWGWIRQSPGKGLEWMGSIYYSGSTYYNPSLKSRVTISVDTSKNQFSLNLSSVTAADTAVYYCARHDYRNYFDYWGQGTLVTVSS
VL: not shown
notes: as for B1
In the case of B2, the binding result in assay [3] is given as “binds”.

B3: TBRE1002 (antibody, V domains shown)
VH: QVQLVESGGGVVQPGGSLRLSCGASGFAFSSNGMHWVRQAPGKGLEWVAFIHYDGRNKHYTDSVKGRFAISVDDSKTTLYLQMSSLKTEDTAVYYCVKDSRVTGQSSGYIFDSWGQGTLVTVSS
VL: ETVMTQSPATLSVSPGDRATLSCRASQNVNFNLAWYQQKPGQAPRLLIYDASTRATGIPARFSGSASGTEFTLTINSLQSEDFAVYYCQQYNNWWTFGQGTKLEIKR
notes: VH/VL only
With B3, the binding result in [4] is “binds”.

B4: TMEL1041 (antibody, V domains shown)
VH: EVQLLESGGGLVQPGGSLRLSCAASGFTFRIYAMSWVRQAPGKGLEWVSAISYSGNTTYYADSVKGRFTISRDNSKNTLYLQINNLRAEDTAIYYCAIQEKRELQLRRELDNYWGQGTLVTVSS
VL: PYELTQPPSVSLSPGQTARITCSGDALPKKYAYWYQQKSGQAPVLVIYEDSKRPSGIPERFSGSSSGTTATLTISGAQVDDEGDYYCYSPDSSGNVWVFGGGTKLTVLG
notes: as for B1
B4: the binding result in assay [5] and in assay [6] was “binds” each time.

B5: TMEL1035 (antibody, V domains shown)
VH: QVQLVESGGGVVQPGRSLRLSCAASGFTFSSYAMHWVRQAPGKGLEWVAVISYDGSNKYYADSVKGRFTISRDNSKNTLYLQMNSLRAEDTAVYYCASPIAVAAPFAYWGQGTLVTVSS
VL: VSSELTQDPAVSVALGQTVRITCQGDSLRSYYASWYQQKPGQAPVLVIYGKNNRPSGIPDRFSGSSSGNTASLTITGAQAEDEADYYCNSRDSSGNLYVFGTGTKVTVLG
notes: as for B1
For the molecule B5, the binding result in [7] and in [8] was “binds” throughout.

B6: TBLA1013 (antibody, V domains shown)
VH: EVQLLESGGGLVQPGGSLTLSCVGSRFTFSSYAMNWVRQSPGRGLEWVASISATTGSTYYTDSVEGRFTISRDNSRDTLYLQMNSLRADDTALYYCVRSFVGAVPAYPNFDFWGPGTLVTVSS
VL: PSGLTQPPSASGTPGQRVTMSCSGSSSNIGRNYVYWYQQLPGAAPKLLIYRDNQRPSGVPDRFSGSKSGTSASLAISGLRSEDEADYYCAAWDDNVSGPGFGAGTRLTVLG
notes: VH/VL only
As for B6, in assay [9], the binding result was “binds”.

B7: TMES1002 (antibody, V domains shown)
VH: QVQVVESGGGLVKPGGSLRLSCAVSGLDFRDYYVNWIRQAPGKGLEWLSYITSPGGHTSYSDSVKGRFTISRDNAKNSVYLQMDSLTVEDTAVYFCAIKEGYGLSDWGQGTLVTVSS
VL: EIVLTQSPVTLSLSPGERATLSCRASQSVSSSYIAWYQQKPGQAPRLLIYGASTRATGIPDRFSGSGSGTDFTLTISRLEPEDCAVFYCQQYGSSHYTFGQGTKLEIKR
notes: as for B1
Take B7: the binding result in assay [10] and in [11] was “binds” throughout.

B8: TMEL1033 (antibody, V domains shown)
VH: PVQLQESGPGLVKPSETLSLTCTVSGGSVSSGSYYWSWIRQPPGKGLEWIGYIYYSGSTNYNPSLKSRVTISVDTSKNQFSLKLSSVTAADTAVYYCARDRGDYVTHWFDPWGQGTLVTVSS
VL: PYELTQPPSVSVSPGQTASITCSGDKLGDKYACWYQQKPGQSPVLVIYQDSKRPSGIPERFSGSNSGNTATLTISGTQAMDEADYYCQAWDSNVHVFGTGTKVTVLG
notes: as for B1
On to B8, for which the binding result in [12], in assay [13] and in assay [14] was “binds” in each case.

B9: TMEL1040 (antibody, V domains shown)
VH: EVQLVQSGAEVKKPGESLKISCKGSGYSFTTYWIAWVRQMPGKGLEWMGIIYPADSDTRYSPSFQGQVTMSADQSINTAYLQWSSLKASDTAMYYCARRGREFDYWGQGTLLTVSS
VL: QSALTQPASVSGSPGQSITISCTGTSSDVGSYNLVSWYQQHPGKAPKLMIYEGSKRPSGVSNRFSGSKSGNTASLTISGLQAEDEADYYCCSYAGSSTPWVFGGGTKLTVL
notes: as for B1
As to B9, in assay [15], the binding result is recorded as “binds”.

B10: TMES1004 (antibody, V domains shown)
VH: QVQLVQSGAEVKKPGASVKISCKASGYTFTSHAIHWVRQAPGQTFEWLGWINPVNGVTKYSQTFQDRVTIVRDKSATTTYMDLSGLTFEDTAMYYCARVLDFYGSSVLDYWGQGTLVTVSS
VL: QSALTQPASVSGSPGQSITISCTGTSSDIGTYNLVSWYQQRPGKAPKLIIYDVIKRPSGISDRFSGSKSDNMASLTISGLQAEDEAHYYCCSYRSSTAPVVFGGGTKVTVL
notes: as for B1
For B10, the binding result in assay [16] is “binds”.

B11: TOVA1002 (antibody, V domains shown)
VH: QVQLVESGGGVVQPGRSLRLSCAASGFTFSNFAMHWVRQAPGKGLEWVVVISSDGSNKNYADSVKGRFTISRDNSKNTLYLQMNSLRAEDTAVYYCARDLGVGSTTYWGQGTLVTVSS
VL: SYVLTQPPSVSVAPGQTARITCGGNNIGSKSVHWYQQKPGQAPVLVVYDDSDRPSGIPERFSGSNSGNTATLTISRVEAGDEADYYCQVWDGYSDPLVFGGGTKLTVLG
notes: as for B1
Take B11: in assay [17], the binding result is recorded as “binds”.
